This note sets out measurements from patent US20030148956A1 (PROCTER AND GAMBLE, published 2003).

Like-named read-outs stand apart in the source and are kept apart here. Ends that are not written are not given here.

Common to all, as to assay: cell-based or functional assay
Assay [1] concerns the target T1, corticotropin releasing factor 2 receptor.
T1 sequence (Q13324 whole entry, species assumed, looked up): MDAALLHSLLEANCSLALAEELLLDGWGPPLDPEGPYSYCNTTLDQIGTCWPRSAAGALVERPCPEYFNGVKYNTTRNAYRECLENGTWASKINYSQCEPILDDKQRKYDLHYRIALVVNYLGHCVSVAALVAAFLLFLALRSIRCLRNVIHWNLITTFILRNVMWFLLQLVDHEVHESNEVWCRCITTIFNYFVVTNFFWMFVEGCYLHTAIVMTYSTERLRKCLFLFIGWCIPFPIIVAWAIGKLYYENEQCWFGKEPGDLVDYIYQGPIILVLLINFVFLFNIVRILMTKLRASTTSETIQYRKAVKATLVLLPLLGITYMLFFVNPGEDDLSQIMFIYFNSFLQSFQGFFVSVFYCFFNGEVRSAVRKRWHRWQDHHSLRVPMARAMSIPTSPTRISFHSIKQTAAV

Assay [2] addresses corticotropin releasing factor 1 receptor.
For assay [3], the target named is T2, corticotropin releasing factor 2 receptor.
T2 sequence (Q13324 whole entry, species assumed, looked up): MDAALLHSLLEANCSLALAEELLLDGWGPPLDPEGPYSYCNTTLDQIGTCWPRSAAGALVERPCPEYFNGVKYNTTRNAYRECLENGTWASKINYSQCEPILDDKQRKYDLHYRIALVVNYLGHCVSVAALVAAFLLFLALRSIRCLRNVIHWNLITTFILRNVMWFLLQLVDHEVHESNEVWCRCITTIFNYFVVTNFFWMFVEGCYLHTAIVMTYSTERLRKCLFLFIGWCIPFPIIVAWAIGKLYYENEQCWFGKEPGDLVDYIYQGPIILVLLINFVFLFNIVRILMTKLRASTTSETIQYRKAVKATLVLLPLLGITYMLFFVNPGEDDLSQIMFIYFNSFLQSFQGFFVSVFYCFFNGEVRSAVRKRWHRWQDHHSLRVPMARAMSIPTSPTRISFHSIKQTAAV
This is another data set of the same source.

The target in assay [4] is corticotropin releasing factor 1 receptor. The source holds these as a separate data set.

TKFTLSLDVPTNIMNLLFNIAKAKNLRAQAAANAHLMAQI (ends and bridges not checked) [human urocortin III fragment]: in assay [1], the “CRF2R EC50” value was more than 100 nM and the “CRF2R Emax %” value amounted to 60%. In addition, in assay [2], the “CRF1R EC50” value is more than 1000 nM and the “CRF1R Emax %” value was found to be 10.2%.

Regarding ZGPPISIDLPLHLLRKMIEIEKQEKEKQQATTNARLLDTV (C-terminal amide) [SEQ ID NO 238], in assay [3], the “CRF2R EC50” value worked out at 16.7 nM and the “CRF2R Emax %” value was found to be 100%. In addition, in assay [4], the “CRF1R EC50” value amounted to 753 nM and the “CRF1R Emax %” value turned out to be 88%.

Take ZGPPISIDLPLYLLRKMIEIEKQEKEKQQATTNARLLDRV (C-terminal amide) [SEQ ID NO 243]: in assay [3], the “CRF2R EC50” value came to 16.8 nM and the “CRF2R Emax %” value was determined as 100%. In assay [4], the “CRF1R EC50” value was determined as 440 nM and the “CRF1R Emax %” value was 96%.

Consider ZGPPISIDLPLQLLEKMIEIEKQEKEKQQATTNARLLDRV (C-terminal amide) [SEQ ID NO 247], for which, in assay [3], the “CRF2R EC50” value amounted to 18.8 nM and the “CRF2R Emax %” value turned out to be 100%. In assay [4], the “CRF1R EC50” value amounted to 1000 nM and the “CRF1R Emax %” value was determined as 34%.

ZGPPISIDLPLHLLRKMIEIEKQEKEKQQATTNARLLDRV (C-terminal amide) [SEQ ID NO 239]: in assay [3], the “CRF2R EC50” value worked out at 13.2 nM and the “CRF2R Emax %” value stood at 100%. For the same molecule, in assay [4], the “CRF1R EC50” value worked out at 587 nM and the “CRF1R Emax %” value worked out at 80%.

Regarding ZGPPISIDLPLYLLRKMIEIEKQEKEKQQATTNARLLDTV (C-terminal amide) [SEQ ID NO 242], in assay [3], the “CRF2R EC50” value was 29 nM and the “CRF2R Emax %” value was found to be 94%. For the same molecule, in assay [4], the “CRF1R EC50” value was 358 nM and the “CRF1R Emax %” value was determined as 99%.

Regarding ZGPPISIDLPLQLLRKMIEIEKQEKEKQQATTNARLLDTV (C-terminal amide) [SEQ ID NO 246], in assay [3], the “CRF2R EC50” value stood at 38.8 nM and the “CRF2R Emax %” value came out at 100%. Besides, in assay [4], the “CRF1R EC50” value was 1000 nM and the “CRF1R Emax %” value stood at 33%.

Take ZGPPISIDLPTYLLRILIEIEKQEKEKQQAANNRLLLDTI (C-terminal amide) [SEQ ID NO 252]: in assay [3], the “CRF2R EC50” value amounted to 22.3 nM and the “CRF2R Emax %” value came out at 100%. For the same molecule, in assay [4], the “CRF1R EC50” value was determined as 226 nM and the “CRF1R Emax %” value was 100%.

For the molecule SEEPPISLDLTFHLLREVLEMARAEQLAQQAHSNRKLMEII (ends and bridges not checked) [human corticotropin releasing factor fragment], in assay [1], the “CRF2R EC50” value is 49.2 nM and the “CRF2R Emax %” value was 100%. Besides, in assay [2], the “CRF1R EC50” value is 19.9 nM and the “CRF1R Emax %” value turned out to be 87%.

Consider ZGPPISIDLPFHLLRKMIEIEKQEKEKQQAANNALLLATI (C-terminal amide) [SEQ ID NO 229], for which, in assay [3], the “CRF2R EC50” value was determined as 10.3 nM and the “CRF2R Emax %” value stood at 100%. Moreover, in assay [4], the “CRF1R EC50” value came out at 298 nM and the “CRF1R Emax %” value was 100%.

In the case of ZGPPISIDLPLELLRKMIEIEKQEKEKQQAANNALLLATI (C-terminal amide) [SEQ ID NO 234], in assay [3], the “CRF2R EC50” value was determined as 20.6 nM and the “CRF2R Emax %” value turned out to be 100%. Moreover, in assay [4], the “CRF1R EC50” value was found to be 434 nM and the “CRF1R Emax %” value was found to be 96%.

In the case of ZGPPISIDLPLQLLRKMIEIEKQEKEKQQAANNALLLDTI (C-terminal amide) [SEQ ID NO 248], in assay [3], the “CRF2R EC50” value was found to be 19.6 nM and the “CRF2R Emax %” value was determined as 98%. In assay [4], the “CRF1R EC50” value came to 1000 nM and the “CRF1R Emax %” value worked out at 32%.

Consider ZGPPISIDLPLHLLRKMIEIEKQEKEKQQAANNALLLDTI (C-terminal amide) [SEQ ID NO 240], for which, in assay [3], the “CRF2R EC50” value was 22 nM and the “CRF2R Emax %” value was 100%. Further, in assay [4], the “CRF1R EC50” value was determined as 915 nM and the “CRF1R Emax %” value amounted to 80%.

On to ZGPPISIDLPTYLLRKMIEIEKQEKEKQQAANNALLLATI (C-terminal amide) [SEQ ID NO 233], for which, in assay [3], the “CRF2R EC50” value was 46.1 nM and the “CRF2R Emax %” value is 95%. Besides, in assay [4], the “CRF1R EC50” value was determined as 1000 nM and the “CRF1R Emax %” value came out at 11%.

Regarding ZGPPISIDLPLELLRKMIEIEKQEKEKQQAANNALLLDTI (C-terminal amide) [SEQ ID NO 235], in assay [3], the “CRF2R EC50” value is 25.7 nM and the “CRF2R Emax %” value was found to be 100%. Moreover, in assay [4], the “CRF1R EC50” value came out at 806 nM and the “CRF1R Emax %” value amounted to 70%.

For ZGPPISIDLPLQLLEKMIEIEKQEKEKQQAANNALLLATI (C-terminal amide) [SEQ ID NO 249], in assay [3], the “CRF2R EC50” value stood at 12.2 nM and the “CRF2R Emax %” value turned out to be 92%. Also, in assay [4], the “CRF1R EC50” value was 1000 nM and the “CRF1R Emax %” value stood at 50%.

For the molecule ZGPPISIDLPIYLLRKMIEIEKQEKEKQQAANNALLLATI (C-terminal amide) [SEQ ID NO 237], in assay [3], the “CRF2R EC50” value is 22.2 nM and the “CRF2R Emax %” value is 93%. For the same molecule, in assay [4], the “CRF1R EC50” value was 1000 nM and the “CRF1R Emax %” value came to 18%.

As to ZGPPISIDLPFQLLRKMIEIEKQEKEKQQAANNALLLDTI (C-terminal amide) [SEQ ID NO 251], in assay [3], the “CRF2R EC50” value is 11.8 nM and the “CRF2R Emax %” value worked out at 100%. In assay [4], the “CRF1R EC50” value is 926 nM and the “CRF1R Emax %” value came to 80%.

As for ZGPPISIDLPLYLLRKMIEIEKQEKEKQQAANNALLLATI (C-terminal amide) [SEQ ID NO 245], in assay [3], the “CRF2R EC50” value came to 7.5 nM and the “CRF2R Emax %” value is 93%. Further, in assay [4], the “CRF1R EC50” value was 381 nM and the “CRF1R Emax %” value amounted to 100%.

Take ZGPPISIDLPFQLLRILIEIEKQEKEKQQAANNRLLLDTI (C-terminal amide) [SEQ ID NO 255]: in assay [3], the “CRF2R EC50” value was 7 nM and the “CRF2R Emax %” value was 100%. Besides, in assay [4], the “CRF1R EC50” value came to 33.3 nM and the “CRF1R Emax %” value came to 84%.

Consider ZGPPISIDLPTYLLRKMIEIEKQEKEKQQAANNALLLDTI (C-terminal amide) [SEQ ID NO 232], for which, in assay [3], the “CRF2R EC50” value stood at 45.3 nM and the “CRF2R Emax %” value turned out to be 100%. For the same molecule, in assay [4], the “CRF1R EC50” value was 1000 nM and the “CRF1R Emax %” value was determined as 7%.

Turning to ZGPPISIDVPIGLLRKMIEIEKQEKEKQQAANNRLLLDTI (C-terminal amide) [SEQ ID NO 254], in assay [3], the “CRF2R EC50” value is 100 nM and the “CRF2R Emax %” value was 36%. In assay [4], the “CRF1R EC50” value worked out at 708 nM and the “CRF1R Emax %” value was found to be 6%.

ZGPPISIDLPLYLLRKMIEIEKQEKEKQQAANNALLLDTI (C-terminal amide) [SEQ ID NO 244]: in assay [3], the “CRF2R EC50” value is 8.8 nM and the “CRF2R Emax %” value was 98%. For the same molecule, in assay [4], the “CRF1R EC50” value was found to be 300 nM and the “CRF1R Emax %” value amounted to 100%.

ZGPPISIDLPIYLLRKMIEIEKQEKEKQQAANNALLLDTI (C-terminal amide) [SEQ ID NO 236]: in assay [3], the “CRF2R EC50” value was 40.4 nM and the “CRF2R Emax %” value came to 97%. Also, in assay [4], the “CRF1R EC50” value was 1000 nM and the “CRF1R Emax %” value came to 15%.

With ZGPPISIDLPFQLLRKMIEIEKQEKEKQQAANNRLLLATI (C-terminal amide) [SEQ ID NO 250], in assay [3], the “CRF2R EC50” value was 19.7 nM and the “CRF2R Emax %” value was determined as 100%. In assay [4], the “CRF1R EC50” value came to 138 nM and the “CRF1R Emax %” value came out at 99%.

Consider ZGPPISIDLPLHLLRKMIEIEKQEKEKQQAANNALLLATI (C-terminal amide) [SEQ ID NO 241], for which, in assay [3], the “CRF2R EC50” value was 12.6 nM and the “CRF2R Emax %” value came to 99%. In assay [4], the “CRF1R EC50” value was 308 nM and the “CRF1R Emax %” value turned out to be 99%.

In the case of ZGPPISIDLPFYLLRKMIEIEKQEKEKQQAANNALLLATI (C-terminal amide) [SEQ ID NO 231], in assay [3], the “CRF2R EC50” value worked out at 5.9 nM and the “CRF2R Emax %” value worked out at 100%. Also, in assay [4], the “CRF1R EC50” value amounted to 94 nM and the “CRF1R Emax %” value was 100%.

With ZGPPISIDVPTYLLRKMIEIEKQEKEKQQAANNRLLLDTI (C-terminal amide) [SEQ ID NO 253], in assay [3], the “CRF2R EC50” value stood at 41.8 nM and the “CRF2R Emax %” value turned out to be 86%. Moreover, in assay [4], the “CRF1R EC50” value was determined as 1000 nM and the “CRF1R Emax %” value worked out at 42%.

As to ZGPPISIDLPFYLLRKMIEIEKQEKEKQQAANNALLLDTI (C-terminal amide) [SEQ ID NO 230], in assay [3], the “CRF2R EC50” value worked out at 8.1 nM and the “CRF2R Emax %” value was determined as 100%. Moreover, in assay [4], the “CRF1R EC50” value came to 219 nM and the “CRF1R Emax %” value came out at 100%.

With DNPSLSIDLTFHLLRTLLELARTQSQRERAEQNRIIFDSV (ends and bridges not checked) [human urocortin I fragment], in assay [1], the “CRF2R EC50” value was determined as 3.52 nM and the “CRF2R Emax %” value was 100%. In addition, in assay [2], the “CRF1R EC50” value turned out to be 9 nM and the “CRF1R Emax %” value came out at 100%.
